Measured values taken from the supplement of paper PMC7877785.
± gives the uncertainty stated by the source.

Assay: self-splicing fitness, log relative to wild type (ln ratio); higher = more splicing; Tetrahymena group I intron in knt gene, E. coli kanamycin selection, DiMSum; sequences stand for … in CUCUCU…GGAGGGAAAAGUUAUCAGGCAUGCACCUGGUAGCUAGUCUUUAAACCAAUAGAUUGCAUCGGUUUAAAAGGCAAGACCGUCAAAUUGCGGGAAAGGGGUCAACAGCCGUUCAGUACCAAGUCUCAGGGGAAACUUUGAGAUGGCCUUGCAAAGGGUAUGGUAAUAAGCUGACGGACAUGGUCCUAACCACGCAGCCAAGUCCUAAGUCAACAGAUCUUCUGUUGAUAUGGAUGCAGUUCACAGACUAAAUGUCGGUCGGGGAAGAUGUAUUCUUCUCAUAAGAUAUAGUCGGACCUCUCCUUAAUGGGAGCUAGCGGAUGAAGUGAUGCAACACUGGAGCCGCUGGGAACUAAUUUGUAUGCGAAAGUAUAUUGAUUAGUUUUGGAGUACUCGUGGUCG
Method in brief: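 The eight P1ex-region nucleotides of an intron in the knt kanamycin-resistance gene on pET-22b(+) were all randomised and the library put into E. coli BL21(DE3). Six replicate transformations were grown overnight at 37°C or 30°C on LB agar with or without 25 μg/mL kanamycin, together with 100 μg/mL carbenicillin, 50 μM IPTG and 0.2% rhamnose. Colonies were pooled and amplicon-sequenced on an Illumina HiSeq 2500. Fitness from DiMSum is the error-weighted combination of wild-type-normalised replicate fold changes, kanamycin over none.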

| Sequence | self-splicing fitness (ln) (30 °C) | self-splicing fitness (ln) (37 °C) |
| --- | --- | --- |
| GUUGAGCAAUAUUACGAUAU | -2.32 ± 0.13 | -1.31 ± 0.12 |
| GUUGAGCAAUAUUACGAUUG | -4.05 ± 0.32 | -1.87 ± 0.27 |
| GUUGAGCAAUAUUACGCCGC | -3.06 ± 0.44 | -2.15 ± 0.5 |
| GUUGAGCAAUAUUACGCGCG | -1.82 ± 0.21 | -1.51 ± 0.23 |
| GUUGAGCAAUAUUACGGAAU | -3.08 ± 0.31 | – |
| GUUGAGCAAUAUUACGGGAG | – | -2.9 ± 0.38 |
| GUUGAGCAAUAUUACGGGUC | -2.23 ± 0.26 | -1.89 ± 0.28 |
| GUUGAGCAAUAUUACGGUUC | -3.63 ± 0.4 | -1.58 ± 0.26 |
| GUUGAGCAAUAUUACGUAGA | – | -0.549 ± 0.24 |
| GUUGAGCAAUAUUACGUAGG | -3.49 ± 0.22 | -2.93 ± 0.37 |
| GUUGAGCAAUAUUACGUAUC | -2.91 ± 0.15 | -1.15 ± 0.15 |
| GUUGAGCAAUAUUACGUUUG | -4.75 ± 0.32 | -2.6 ± 0.24 |
| GUUUAGCAAUAUUACGAAAG | -1.07 ± 0.18 | -0.341 ± 0.22 |
| GUUUAGCAAUAUUACGACCA | -1.56 ± 0.35 | -0.943 ± 0.35 |
| GUUUAGCAAUAUUACGACGA | -0.271 ± 0.17 | -0.957 ± 0.24 |
| GUUUAGCAAUAUUACGACUG | -4.08 ± 0.39 | -0.416 ± 0.23 |
| GUUUAGCAAUAUUACGAUGC | -0.832 ± 0.089 | 0.32 ± 0.12 |
| GUUUAGCAAUAUUACGAUUA | -1.93 ± 0.16 | -1.01 ± 0.2 |
| GUUUAGCAAUAUUACGCCAA | -1.57 ± 0.27 | -1.58 ± 0.24 |
| GUUUAGCAAUAUUACGCCGA | -2.93 ± 0.4 | – |
| GUUUAGCAAUAUUACGCUAA | -3.38 ± 0.32 | -1.4 ± 0.21 |
| GUUUAGCAAUAUUACGCUCC | -1.82 ± 0.37 | 1.01 ± 0.34 |
| GUUUAGCAAUAUUACGGACG | -1.76 ± 0.15 | -0.693 ± 0.15 |
| GUUUAGCAAUAUUACGGGAA | -2.96 ± 0.23 | -2.04 ± 0.19 |
| GUUUAGCAAUAUUACGGGGG | -3.68 ± 0.37 | -1.82 ± 0.26 |
| GUUUAGCAAUAUUACGGUUA | -1.68 ± 0.18 | -0.49 ± 0.12 |

| Sequence | self-splicing fitness (ln) (30 °C) | self-splicing fitness (ln) (37 °C) |
| --- | --- | --- |
| GUUUAGCAAUAUUACGUACA | -0.582 ± 0.2 | -0.508 ± 0.22 |
| GUUUAGCAAUAUUACGUGCA | -0.885 ± 0.099 | -0.958 ± 0.11 |
| GUUUAGCAAUAUUACGUUUC | -2.17 ± 0.21 | -2.07 ± 0.23 |
| UAAAAGCAAUAUUACGACAC | -1.88 ± 0.15 | -0.594 ± 0.17 |
| UAAAAGCAAUAUUACGAUCG | 0.0746 ± 0.077 | 0.385 ± 0.1 |
| UAAAAGCAAUAUUACGCCUA | 0.161 ± 0.073 | -0.367 ± 0.081 |
| UAAAAGCAAUAUUACGCUAU | -2.11 ± 0.15 | -2.2 ± 0.19 |
| UAAAAGCAAUAUUACGCUCA | -0.334 ± 0.11 | 0.128 ± 0.12 |
| UAAAAGCAAUAUUACGCUCG | -0.628 ± 0.084 | 0.0432 ± 0.099 |
| UAAAAGCAAUAUUACGGCCA | 0.0708 ± 0.15 | 0.573 ± 0.19 |
| UAAAAGCAAUAUUACGGCGC | -1.64 ± 0.12 | -0.483 ± 0.13 |
| UAAAAGCAAUAUUACGGUAA | -1.94 ± 0.14 | -0.97 ± 0.098 |
| UAAAAGCAAUAUUACGUCAC | -3 ± 0.2 | -2.25 ± 0.28 |
| UAAAAGCAAUAUUACGUCAU | -3.62 ± 0.14 | -1.88 ± 0.1 |
| UAAAAGCAAUAUUACGUGAC | – | -3.43 ± 0.46 |
| UAACAGCAAUAUUACGAAUG | -0.844 ± 0.085 | -0.788 ± 0.098 |
| UAACAGCAAUAUUACGACAC | -3.35 ± 0.16 | -0.676 ± 0.11 |
| UAACAGCAAUAUUACGACGU | -1.16 ± 0.071 | -0.452 ± 0.091 |
| UAACAGCAAUAUUACGAGCA | -1.22 ± 0.1 | -0.317 ± 0.1 |
| UAACAGCAAUAUUACGAGGG | -3.58 ± 0.2 | -3.12 ± 0.22 |
| UAACAGCAAUAUUACGAUAG | -1.21 ± 0.11 | -0.506 ± 0.12 |
| UAACAGCAAUAUUACGAUGC | -3.84 ± 0.33 | -2.35 ± 0.26 |
| UAACAGCAAUAUUACGCAUA | -0.955 ± 0.075 | -0.0703 ± 0.069 |
| UAACAGCAAUAUUACGCCAA | -3.04 ± 0.19 | -1.38 ± 0.14 |
| UAACAGCAAUAUUACGCGGG | -2.44 ± 0.1 | -1.18 ± 0.078 |
| UAACAGCAAUAUUACGCUAG | -1.81 ± 0.071 | -0.992 ± 0.08 |

| Sequence | self-splicing fitness (ln) (30 °C) | self-splicing fitness (ln) (37 °C) |
| --- | --- | --- |
| UAACAGCAAUAUUACGGACU | -1.02 ± 0.064 | -0.504 ± 0.089 |
| UAACAGCAAUAUUACGGCGG | -0.643 ± 0.053 | -0.105 ± 0.068 |
| UAACAGCAAUAUUACGGCGU | -1.79 ± 0.11 | -1.01 ± 0.1 |
| UAACAGCAAUAUUACGGUCC | -2.94 ± 0.15 | -1.99 ± 0.19 |
| UAACAGCAAUAUUACGUGCU | -3.33 ± 0.16 | -2.28 ± 0.16 |
| UAACAGCAAUAUUACGUUGU | -4.18 ± 0.16 | -2.67 ± 0.14 |
| UAAGAGCAAUAUUACGAGAA | – | -1.68 ± 0.46 |
| UAAGAGCAAUAUUACGAGCU | -2.93 ± 0.3 | -2.6 ± 0.44 |
| UAAGAGCAAUAUUACGAGGC | – | -1.97 ± 0.41 |
| UAAGAGCAAUAUUACGAGUA | -2.94 ± 0.19 | -2.66 ± 0.21 |
| UAAGAGCAAUAUUACGAUUU | -2.44 ± 0.17 | -0.0704 ± 0.12 |
| UAAGAGCAAUAUUACGCAUC | -4.23 ± 0.3 | -3.46 ± 0.37 |
| UAAGAGCAAUAUUACGCGCC | – | -1.6 ± 0.38 |
| UAAGAGCAAUAUUACGGACA | -1.78 ± 0.25 | -2.31 ± 0.35 |
| UAAGAGCAAUAUUACGGCUU | -2.3 ± 0.2 | -1.44 ± 0.22 |
| UAAGAGCAAUAUUACGGGGG | -2.94 ± 0.22 | – |
| UAAGAGCAAUAUUACGGGUC | – | -1.7 ± 0.41 |
| UAAGAGCAAUAUUACGUACA | -2.95 ± 0.37 | -1.59 ± 0.4 |
| UAAGAGCAAUAUUACGUCGU | -4.06 ± 0.31 | -3.11 ± 0.43 |
| UAAGAGCAAUAUUACGUCUG | -1.54 ± 0.093 | -0.00255 ± 0.11 |
| UAAGAGCAAUAUUACGUGUU | -3.32 ± 0.18 | -2.96 ± 0.3 |
| UAAGAGCAAUAUUACGUUGA | – | -1.97 ± 0.19 |
| UAAGAGCAAUAUUACGUUGU | -1.95 ± 0.2 | -0.367 ± 0.31 |
| UAAUAGCAAUAUUACGAUUA | -1.04 ± 0.13 | 0.0261 ± 0.14 |
| UAAUAGCAAUAUUACGCAAU | -3.5 ± 0.23 | -2.4 ± 0.26 |
| UAAUAGCAAUAUUACGCCUC | -2.77 ± 0.35 | -1.53 ± 0.38 |
